Measurements: the supplement of paper PMC10567573

B1: SMG5 (parent)
chain: TRKLSPGKKRCKDIKRLLVNFMYL

Variants of: B1
Assay: protein stability index of a GFP-peptide fusion (GPS, HEK-293T) (PSI 1-6); higher = more stable
Details: c terminus: a fixed tail appended
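Also: lentivirally expressed fusions sorted by FACS into six bins by GFP to DsRed ratio, PSI derived from sequencing read proportions per bin multiplied by bin number.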

Variant | protein stability index
TRKLSPGKKRCKDIKRLLVNFMYF [L24F] | 2.53
TRKLSPGKKRCKDIKRLLVNFMYI [L24I] | 4.07
TRKLSPGKKRCKDIKRLLVNFMYY [L24Y] | 2.08
TRKLSPGKKRCKDIKRLLVNFMYE [L24E] | 1.96
TRKLSPGKKRCKDIKRLLVNFMYW [L24W] | 1.9
TRKLSPGKKRCKDIKRLLVNFMYD [L24D] | 1.2
TRKLSPGKKRCKDIKRLEVNFMYL [L18E] | 2.16
TRKLSPGKKRCKDIKRLSVNFMYL [L18S] | 1.88
TRKLSPGKKRCKDIKRLGVNFMYL [L18G] | 2.35
TRKLSPGKKRCKDIKRLCVNFMYL [L18C] | 1.52
TRKLSPGKKRCKDIKRLRVNFMYL [L18R] | 1.68
TRKLSPGKKRCKDIKRLFVNFMYL [L18F] | 2.21
TRKLSPGKKRCKDIKRLPVNFMYL [L18P] | 2.48
TRKLSPGKKRCKDIKRLQVNFMYL [L18Q] | 1.95
TRKLSPKKKRCKDIKRLLVNFMYL [G7K] | 3.32
TRKLSPQKKRCKDIKRLLVNFMYL [G7Q] | 1.86
TRKLSPFKKRCKDIKRLLVNFMYL [G7F] | 2.24
VRKLSPGKKRCKDIKRLLVNFMYL [T1V] | 3.92
CRKLSPGKKRCKDIKRLLVNFMYL [T1C] | 2.22
GRKLSPGKKRCKDIKRLLVNFMYL [T1G] | 1.92
QRKLSPGKKRCKDIKRLLVNFMYL [T1Q] | 2.7
HRKLSPGKKRCKDIKRLLVNFMYL [T1H] | 3.62
TRKLSPGKKRCKDIPRLLVNFMYL [K15P] | 2.23
TRKLSPGKKRCKDIGRLLVNFMYL [K15G] | 1.85

Variant | protein stability index
TRKLSPGKKRCKQIKRLLVNFMYL [D13Q] | 3.52
TRKLSPGKKRCKMIKRLLVNFMYL [D13M] | 2.54
TRKLSPGKKRCKKIKRLLVNFMYL [D13K] | 2.07
TAKLSPGKKRCKDIKRLLVNFMYL [R2A] | 2.29
TQKLSPGKKRCKDIKRLLVNFMYL [R2Q] | 1.59
TMKLSPGKKRCKDIKRLLVNFMYL [R2M] | 3
TFKLSPGKKRCKDIKRLLVNFMYL [R2F] | 3.38
TRKLSPGGKRCKDIKRLLVNFMYL [K8G] | 1.05
TRKLSPGNKRCKDIKRLLVNFMYL [K8N] | 1.74
TRKLSPGSKRCKDIKRLLVNFMYL [K8S] | 1.98
TRKLSPGKKRCGDIKRLLVNFMYL [K12G] | 2.95
TRKLSPGKKRCCDIKRLLVNFMYL [K12C] | 3.37
TRKLSPGKKRCEDIKRLLVNFMYL [K12E] | 4.79
TRKLSPGKKRCVDIKRLLVNFMYL [K12V] | 2.02
TRKLSPGKKRCKDFKRLLVNFMYL [I14F] | 2.36
TRKLSPGKKRCKDEKRLLVNFMYL [I14E] | 1.32
TRKLSPGKKRCKDMKRLLVNFMYL [I14M] | 2.34
TRKLSPGKKRCKDGKRLLVNFMYL [I14G] | 1.18
TRKLSPGKKRCKDSKRLLVNFMYL [I14S] | 2.53
TRKLSPGKKRCKDCKRLLVNFMYL [I14C] | 3.55
TRKLSPGKKRCKDHKRLLVNFMYL [I14H] | 2.23
TRKLSPGKKRMKDIKRLLVNFMYL [C11M] | 1.93
TRKLSPGKKRKKDIKRLLVNFMYL [C11K] | 2
TRKLSPGKKRYKDIKRLLVNFMYL [C11Y] | 1.91

Variant | protein stability index
TRKLSPGKKRCKDIKRLLVNSMYL [F21S] | 2.88
TRKLSPGKKRCKDIKRLLVNGMYL [F21G] | 1.63
TRKLSPGKKRCKDIKRLLVNWMYL [F21W] | 1.91
TRKLSPGKKRCKDIKRLLVNCMYL [F21C] | 1.21
TRKLSPGKKRCKDIKRLLLNFMYL [V19L] | 3.43
TRKLSPGKKRCKDIKRLLINFMYL [V19I] | 1.66
TRKLSPGKKRCKDIKRLLDNFMYL [V19D] | 2.34
TRKLSPGKKRCKDIKRLLGNFMYL [V19G] | 2.1
TRKPSPGKKRCKDIKRLLVNFMYL [L4P] | 2.58
TRKGSPGKKRCKDIKRLLVNFMYL [L4G] | 1.36
TRKASPGKKRCKDIKRLLVNFMYL [L4A] | 1.76
TRKKSPGKKRCKDIKRLLVNFMYL [L4K] | 2.07
TRKLLPGKKRCKDIKRLLVNFMYL [S5L] | 1.55
TRKLSPGKKRCKDIKRLLVNFKYL [M22K] | 1.86
TRKLSPGKKRCKDIKRLLVNFFYL [M22F] | 2.29
TRKLSPGKKRCKDIKRLLVNFVYL [M22V] | 2.33
TRKLSPGKKRCKDIKRLLVNFNYL [M22N] | 1.95
TRKLSPGKKRCKDIKRLLVKFMYL [N20K] | 2.12
TRKLSPGKKRCKDIKRLLVSFMYL [N20S] | 3.78
TRKLSPGKKRCKDIKRALVNFMYL [L17A] | 1.77
TRKLSPGKKRCKDIKRGLVNFMYL [L17G] | 3.06
TRKLSPGKKRCKDIKRELVNFMYL [L17E] | 1.55
TRKLSPGKKRCKDIKRFLVNFMYL [L17F] | 3.34
TRKLSPGKKRCKDIKRQLVNFMYL [L17Q] | 1.5

Variant | protein stability index
TRKLSPGKKRCKDIKRHLVNFMYL [L17H] | 1.3
TRKLSPGKKRCKDIKRTLVNFMYL [L17T] | 1.9
TRWLSPGKKRCKDIKRLLVNFMYL [K3W] | 1.86
TRVLSPGKKRCKDIKRLLVNFMYL [K3V] | 3.52
TRLLSPGKKRCKDIKRLLVNFMYL [K3L] | 1.85
TRKLSPGKFRCKDIKRLLVNFMYL [K9F] | 3
TRKLSPGKNRCKDIKRLLVNFMYL [K9N] | 4.29
TRKLSPGKTRCKDIKRLLVNFMYL [K9T] | 2.64
TRKLSPGKLRCKDIKRLLVNFMYL [K9L] | 3.19
TRKLSPGKKRCKDIKRLLVNFMFL [Y23F] | 1.64
TRKLSPGKKRCKDIKRLLVNFMML [Y23M] | 2.94
TRKLSPGKKRCKDIKRLLVNFMWL [Y23W] | 2.16
TRKLSPGKKRCKDIKRLLVNFMDL [Y23D] | 2.01
TRKLSPGKKRCKDIKRLLVNFMKL [Y23K] | 2.93
TRKLSPGKKRCKDIKALLVNFMYL [R16A] | 2.73
TRKLSPGKKRCKDIKWLLVNFMYL [R16W] | 3.81
TRKLSPGKKRCKDIKQLLVNFMYL [R16Q] | 1.27
TRKLSPGKKSCKDIKRLLVNFMYL [R10S] | 2.03
TRKLSPGKKKCKDIKRLLVNFMYL [R10K] | 2.07
TRKLSQGKKRCKDIKRLLVNFMYL [P6Q] | 3.24
TRKLSVGKKRCKDIKRLLVNFMYL [P6V] | 3.45
TRKLSGGKKRCKDIKRLLVNFMYL [P6G] | 2.69
